According to PMC8252471, “Rerouting and Improving Dauc‐8‐en‐11‐ol Synthase from Streptomyces venezuelae to a High Yielding Biocatalyst” (Chemistry (Weinheim an Der Bergstrasse, Germany), 2021):

B1: DcS (dauc-8-en-11-ol synthase; formerly isodauc-8-en-11-ol synthase, IdS) (Streptomyces venezuelae ATCC 10712) (protein)
chain: MTVRAVELPQLWMPYPLRVNPYLSALREESETWAREMGMLGGEGPSARGAIWTRSQFHAMTVELLTAWTLPDASLAGLRLNHRFNIWALAWDDYFASTFKQTGDLPGALDFTARLHAFLRPEADARSPEPVNAVERGIADLQKHLFPPRLAHWRQEFNLALAHYIDAGVQELTNSRGGRVPHLIEYAPFRRESFAAHTAPYSVELATGARIPEQLRHTRTVHALLDAFMDVMGLANDVASYEREVHEERDVNNLVVVIGTSLGITLHQAVPAALHMVNARMRDFEHLRHHELPPLVDRFGLRPDEREELETWLGGAASFLSGLHAWYTGAPRYAPTDHSVPEQRQRGGSEGAADRHAPAASSLARGAEAQTCGPTASAGSA
notes: motifs: D92 in 92DDYFA, R190, N236 in 236NDVASYERE, H58, H197, Y241
B2: DcS (dauc-8-en-11-ol synthase; formerly isodauc-8-en-11-ol synthase, IdS) (Streptomyces venezuelae ATCC 10712; H197F/Y241F) (protein)
chain: MTVRAVELPQLWMPYPLRVNPYLSALREESETWAREMGMLGGEGPSARGAIWTRSQFHAMTVELLTAWTLPDASLAGLRLNHRFNIWALAWDDYFASTFKQTGDLPGALDFTARLHAFLRPEADARSPEPVNAVERGIADLQKHLFPPRLAHWRQEFNLALAHYIDAGVQELTNSRGGRVPHLIEYAPFRRESFAAFTAPYSVELATGARIPEQLRHTRTVHALLDAFMDVMGLANDVASFEREVHEERDVNNLVVVIGTSLGITLHQAVPAALHMVNARMRDFEHLRHHELPPLVDRFGLRPDEREELETWLGGAASFLSGLHAWYTGAPRYAPTDHSVPEQRQRGGSEGAADRHAPAASSLARGAEAQTCGPTASAGSA
notes: motifs: D92 in 92DDYFA, R190, N236 in 236…, H58, H197, Y241

Substrate: CC(C)=CCC/C(C)=C/CC/C(C)=C/CO[P@@](=O)(O)OP(=O)(O)O
Test: enzyme kinetics
Assay type: biochemical, Streptomyces venezuelae

Protein	Km	kcat
B1	2.90 ± 0.02 mM	35.6 ± 2.9 s⁻¹
B2	5.95 ± 0.02 mM	65.5 ± 8.6 s⁻¹
